T1: B3GNT2 (Homo sapiens, UniProt Q9NY97)
T1 construct: The respective ORFs of candidate genes [CD274 (NM_014143), MCL1 (NM_021960), JUNB (NM_002229), and B3GNT2 (NM_006577)] were synthesized; expressed in transfected cells; host or cells: A375 melanoma cells (lentiviral ORF overexpression)
T1 sequence (Q9NY97 1-397): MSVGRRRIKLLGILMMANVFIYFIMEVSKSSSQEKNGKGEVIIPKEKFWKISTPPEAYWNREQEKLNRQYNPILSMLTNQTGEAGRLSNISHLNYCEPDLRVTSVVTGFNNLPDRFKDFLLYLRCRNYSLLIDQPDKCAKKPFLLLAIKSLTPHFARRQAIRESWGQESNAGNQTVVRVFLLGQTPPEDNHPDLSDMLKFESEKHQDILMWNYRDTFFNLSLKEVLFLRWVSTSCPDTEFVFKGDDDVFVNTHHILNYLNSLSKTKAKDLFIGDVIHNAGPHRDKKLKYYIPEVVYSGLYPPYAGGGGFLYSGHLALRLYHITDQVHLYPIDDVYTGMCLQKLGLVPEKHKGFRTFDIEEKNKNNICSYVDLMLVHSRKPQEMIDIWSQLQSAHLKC


Biological target: T1, B3GNT2
Test: Co-IP of FLAG-tagged B3GNT2 followed by mass spectrometry
Assay type: cell-based
Design: C-term IgG / C-term flag: unit not given here
Settings: Co-IP followed by mass spectrometry of B3GNT2; for C-term flag / C-term IgG: C-term tag; for C-term flag / N-term FLAG: FLAG pull-down; for C-term IgG / N-term IgG: IgG pull-down; for N-term FLAG / N-term IgG: N-term tag
In short: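 FLAG-tagged B3GNT2 immunoprecipitated from cell lysate (HEPES, 1% Triton X-100, 150 mM NaCl) with anti-FLAG versus […], overnight at 4° C, then captured on Protein A/G magnetic beads for 4 h. Two biological replicates per condition. Peptides fractionated and analyzed by nano-LC on an Orbitrap Elite in data-dependent mode.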

C-term flag | C-term IgG | N-term FLAG | N-term IgG | Molecule
4 | 0 | 0 | 0 | PLOD1 (protein) KGDAKPEDNLLVLTVATKETEGFRRFKRSAQFFNYKIQALGLGEDWNVEKGTSAGGGQKVRLLKKALEKHADKEDLVILFADSYDVLFASGPRELLKKFRQARSQVVFSAEELIYPDRRLETKYPVVSDGKRFLGSGGFIGYAPNLSKLVAEWEGQDSDSDQLFYTKIFLDPEKREQINITLDHRCRIFQNLDGALDEVVLKFEMGHVRARNLAYDTLPVLIHGNGPTKLQLNYLGNYIPRFWTFETGCTVCDEGLRSLKGIGDEALPTVLVGVFIEQPTPFVSLFFQRLLRLHYPQKHMRLFIHNHEQHHKAQVEEFLAQHGSEYQSVKLVGPEVRMANADARNMGADLCRQDRSCTYYFSVDADVALTEPNSLRLLIQQNKNVIAPLMTRHGRLWSNFWGALSADGYYARSEDYVDIVQGRRVGVWNVPYISNIYLIKGSALRGELQSSDLFHHSKLDPDMAFCANIRQQDVFMFLTNRHTLGHLLSLDSYRTTHLHNDLWEVFSNPEDWKEKYIHQNYTKALAGKLVETPCPDVYWFPIFTEVACDELVEEMEHFGQWSLGNNKDNRIQGGYENVPTIDIHMNQIGFEREWHKFLLEYIAPMTEKLYPGYYTRAQFDLAFVVRYKPDEQPSLMPHHDASTFTINIALNRVGVDYEGGGCRFLRYNCSIRAPRKGWTLMHPGRLTHYHEGLPTTRGTRYIAVSFVDP
9 | 9 | 12 | 8 | CPSF7 (protein) MSEGVDLIDIYADEEFNQDPEFNNTDQIDLYDDVLTATSQPSDDRSSSTEPPPPVRQEPSPKPNNKTPAILYTYSGLRNRRAAVYVGSFSWWTTDQQLIQVIRSIGVYDVVELKFAENRANGQSKGYAEVVVASENSVHKLLELLPGKVLNGEKVDVRPATRQNLSQFEAQARKRECVRVPRGGIPPRAHSRDSSDSADGRATPSENLVPSSARVDKPPSVLPYFNRPPSALPLMGLPPPPIPPPPPLSSSFGVPPPPPGIHYQHLMPPPPRLPPHLAVPPPGAIPPALHLNPAFFPPPNATVGPPPDTYMKASAPYNHHGSRDSGPPPSTVSEAEFEDIMKRNRAISSSAISKAVSGASAGDYSDAIETLLTAIAVIKQSRVANDERCRVLISSLKDCLHGIEAKSYSVGASGSSSRKRHRSRERSPSRSRESSRRHRDLLHNEDRHDDYFQERNREHERHRDRERDRHH
4 | 0 | 0 | 0 | TTC13 (protein) MAPAGCCCCCCFWGGAVAAAGAARRVLLLLLLGVLSAGLRPGALATEHYSPLSLLKQELQHRQQQEAPAGGGGCSPQSGDWGDQYSAECGESSFLNFHDSDCEPKGSSPCDSLLSLNTEKILSQAKSIAEQKRFPFATDNDSTNEELAIAYVLIGSGLYDEAIRHFSTMLQILSPLGRINEAVNDLTKAIQLQPSARLYRHRGTLYFISEDYATAHEDFQQSLELNKNQPIAMLYKGLTFFHRGLLKEAIESFKEALKQKVDFIDAYKSLGQAYRELGNFEAATESFQKALLLNQNHVQTLQLRGMMLYHHGSLQEALKNFKRCLQLEPYNEVCQYMKGLSHVAMGQFYEGIKAQTKVMLNDPLPGQKASPEYLKVKYLREYSRYLHAHLDTPLTEYNIDVDLPGSFKDHWAKNLPFLIEDYEEQPGLQPHIKDVLHQNFESYKPEVQELICVADRLGSLMQYETPGFLPNKRIHRAMGLAALEVMQAVQRTWTNSKVRMNGKTRLMQWRDMFDIAVKWRRIADPDQPVLWLDQMPARSLSRGFNNHINLIRGQVINMRYLEYFEKILHFIKDRILVYHGANNPKGLLEVREALEKVHKVEDLLPIMKFNTKTKDGFTVNTKVPSLKDQGKEYDGFTITITGDKVGNILFSVETQTTEERTQLYHAEIDALYKDLTAKGKVLILSSEFGEADAVCNLILSLVYYFYNLMPLSRGSSVIAYSVIVGALMASGKEVAGKIPKGKLVDFEAMTAPGSEAFSKVAKSWMNLKSISPSYKTLPSVSETFPTLRSMIEVLNTDSSPRCLKKL

— US20240261333A1, “NOVEL TARGETS FOR ENHANCING ANTI-TUMOR IMMUNITY” (THE BROAD INSTITUTE, INC., priority 2021, published 2024)
